Reference: article PMC5304201 (2017)

Target: Amyloid-beta 42 oligomers Abeta42 (Homo sapiens, UniProt P05067, biotinylated Abeta42 oligomers, HA-tagged NRX1beta)
Experiment: cell surface binding assay, Scatchard

Kd: 184 nM
B1: Neurexin-1beta S4(-) (protein)
chain: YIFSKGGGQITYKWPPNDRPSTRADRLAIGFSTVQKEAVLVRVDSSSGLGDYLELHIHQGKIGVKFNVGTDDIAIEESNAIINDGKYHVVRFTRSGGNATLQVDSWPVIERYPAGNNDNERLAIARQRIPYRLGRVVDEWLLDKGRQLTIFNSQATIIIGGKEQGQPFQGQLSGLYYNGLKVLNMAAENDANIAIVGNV
